# Data as given in patent US20130316958A1 (University of Southern California, priority 2010, published 2013).
# Non-standard residues stand in square brackets, D forms with d. No end group written: not given here.
# Tests used:
# Atg3 [1] = biological target: T1, Atg3 (Homo sapiens, UniProt Q9NT62); test: GST pulldown of KSHV vFLIP α-helix fragments and deletion mutants; format: binding; details: GST fusions or deletion mutants in HEK293T
# T1 construct: GFP (alternative construct GFP-Atg3, not on the same molecule as GST); expressed in transfected cells; host or cells: HEK293T
# Excerpt: Due to the substantial similarities between DEDI and DED2, Atg3 bound each DED of KSHV vFLIP with a similar affinity. Structural analyses have shown that the DED1 and DED2 of KSHV vFLIP and MCV 159L contain six and five α-helixes, respectively. (Yang et al. (2005) Mol. Cell. 20:939-949); Bagneris et al. (2008) Mol. Cell. 30:620-631). To further define the Atg3 binding sequences, each DED of KSHV vFLIP was divided into small α-helix fragments based on the previous structural analysis and expressed as mammalian GST fusions. Truncated mutant constructs of KSHV-vFLIP and hATG3 were created by subcloning the PCR products of cDNA fragments containing each domain of the associated genes into pcDNA5/FRT/TO. HEK293T cells were transfected with mutant constructs for GST pulldown as described above, followed by immunoblotting with αV5. […] In contrast, vFLIP mutants carrying a loss of 14-3-3σ, IKKαβγ complex, or FADD interaction bound Atg3 and blocked rapamycin-induced autophagy as efficiently as wild-type vFLIP.
# TREX-BCBL-Vector cells = test: Cell death after overnight peptide incubation; format: cell-based; details: identical conditions, 30 or 50 μM
# Excerpt: (§1) The vFLIP α2 (10 aa) and α4 (12 aa) peptides that independently bound Atg3 at high efficiency were fused with the HIV-1 TAT protein transduction domain for intracellular delivery (Gump and Dowdy (2007) Trends Mol. Med. 13:443-448) and tested for their potential effects on autophagy induction. The K-α2 and K-α4 peptides contained KSHV vFLIP aa20-29 and aa128-139 regions, respectively, as retro-inverso versions to circumvent the proteolytic degradation. Mutant peptides K-α2m and K-α4m were also included, which replaced the hydrophobic core residues of the K-α2 (L21F22L23) and K-α4 (F130L-WVY139) peptides with alanines, as well as the C-α2 and C-α4 peptides containing the cFLIPs regions aa19-28 and aa128-139, respectively. At 12 hr post-transfection with GFP-LC3, KSHV-infected TREX-BCBL-Vector and TREX-BCBL-vFLIP cells were incubated with various concentrations of the peptides or rapamycin for an additional 12 hr, followed by an assessment of the GFP-LC3 puncta and cell death. […] Peptide-treated TREX-BCBL-Vector and TREX-BCBL-vFLIP cells were subjected to immunoblotting with αLC3 and aactin.
# [2] = system: KSHV-infected TREX-BCBL-Vector cells; test: GFP-LC3 puncta autophagy assessment after peptide treatment; format: cell-based; details: 30 or 50 μM peptide, 12 hr
# Excerpt: as §1
# ALL cells = test: Tumor cell viability by trypan blue exclusion, ALL cells; format: cell-based; details: BV-173 and SUP-B15, FIG. 5
# Procedure: Tumor cells were treated with peptides at various concentrations for 12 hours and their viability measured by trypan blue exclusion, followed by analyses using the Beckman Coulter Z2 Particle Count and Size Analyzer (BC Z2 CS Analyzer). A minimum of 100 cells per sample using triplicate samples was counted per condition per experiment.
# [3] = biological target: T2, Atg3 (human Atg3, E2-like enzyme of the LC3 conjugation system) (human, UniProt Q9NT62 1-314); test: binding of Atg3 to the separate DEDs of vFLIP; method not detailed
# T2 construct: also called hATG3; GFP-Atg3
# [4] = biological target: T2, Atg3 (human Atg3, E2-like enzyme of the …); test: co-immunoprecipitation from HEK293T cells
# [5] = system: human Atg3 deletion mutants; test: GST pulldown with Atg3 deletion mutants; format: binding; details: GST-Atg3, N-terminal and C-terminal regions
# Excerpt: The overall structure of yeast Atg3 has a unique hammer-like shape with the N-terminal and C-terminal regions discretely responsible for Atg7 and Atg8 (equivalent to mammalian LC3) binding, respectively. (Yamada et al. (2007) J. Biol. Chem. 282:8036-8043). Based on the structure of yeast Atg3, human Atg3 deletion mutants fused with a GST mammalian expression vector were constructed: GST-Atg31-93, GST-Atg3193-268, GST-Atg3268-315, and GST-Atg3193-315-GST-tagged hATG3 and hATG3 mutant genes were cloned into a pcDNA5/FRT/TO derivative encoding an N-terminal GST epitope tag between the BamHI and NotI sites. GST pulldown with Flag-KSHV vFLIP, Flag-cFLIPs, Flag-MCV 159L, or Flag-HVS vFLIP along with GST-Atg3, GST-Atg3 N-terminal region (Nt), or GST-Atg3 C-terminal region (Ct) was performed as described above and was followed by immunoblotting with aFlag or aGST.
# NIH3T3 cells = test: GFP-LC3 autophagy with ectopic FLIP expression; format: cell-based; details: Hank's solution 4 hr or 2 μM rapamycin 3 hr
# Procedure: At 12-16 hours post-transfection with GFP-LC3, NIH3T3 cells containing vector or the FLIP gene were treated with Hank's solution for 4 hr or with 2 μM rapamycin for 3 hr. Subsequently, GFP-LC3 was detected using an inverted fluorescence microscope, autophagy was quantified as means (±SD) of the combined results from three independent experiments, and autophagosomes were visualized through scanning electron microscopy. NIH3T3-Vector, NIH3T3-KSHV-vFLIP, and NIH3T3-MCV-159L cells were treated with Hank's solution for 4 hr, followed by immunoblotting with anti-LC3 and anti-βTubulin. At 12-16 hr post-transfection with GFP-LC3, TREX-BCBL-Vector and TREX-BCBL-vFLIP cells were treated with doxycycline for 24 hr, followed by incubation with 2 μM rapamycin for an additional 12 hr. The detection of GFP-LC3 and autophagy levels was performed as described above, vFLIP expression was detected by IB with anti-Flag, and autophagosomes were visualized by scanning EM. TNF-induced apoptosis and NF-κB luciferase assay were performed as previously described (Matta and Chaudhary (2004) Proc. Natl. Acad. Sci. USA 101:9399-9404).
# The anti-autophagic properties of vFLIP, as well as the related cFLIP, HSV, and MCV, were evaluated by ectopic expression of HVS, vFLIP, MCV 159L, and the short form of cFLIP (cFLIPs) in NIHI3T3 cells. DNA fragments corresponding to the coding sequences of the KSHV-vFLIP, human cFLIPs, MCV-MC159, and HVS-vFLIP genes were amplified via polymerase chain reaction and subcloned into pcDNA5/FRT/TO between the AflII and BamHI restriction sites or pEF-IRES-puro between the AflII and XbaI sites. Starvation studies were carried out by transfecting cells containing vector or the FLIP gene with GFP-LC3, then 12-16 h post-transfection, treating the cells with Hank's solution for 4 hr or with 2 μM rapamycin for 3 hr. Autophagy was assessed by GFP-LC3 redistribution using an inverted fluorescence microscope, quantifying autophagy as means (±SD) of the combined results from three independent experiments. Autophagosomes were visualized through scanning electron microscopy. […]
# Atg3 [6] = biological target: T1, Atg3; test: Co-immunoprecipitation of FLIP with Atg3 in HEK293T cells; format: binding; details: endogenously and exogenously expressed Atg3
# Procedure: The ability of FLIP to bind to Atg3 was evaluated by co-immunoprecipitation assay. HEK293T cells were transfected with Flag-vFLIP and/or GFP-Atg3 or Flag-vFLIP and/or GST-Atg3, and at 48 hr post-transfection, cells were harvested and lysed in an NP40 buffer supplemented with complete protease inhibitor cocktail (Roche). After pre-clearing with protein A/G agarose beads for 1 hr at 4° C., whole-cell lysates were used for immunoprecipitation with αFlag, αGFP, or GST. Generally, 1-4 μg of the antibody was added to 1 ml of the cell lysate and incubated at 4° C. for 8 to 12 hr. The immunoprecipitates were then washed extensively with a lysis buffer and eluted by boiling them with an SDS loading buffer for 5 min. Following immunoprecipitation, samples were treated to immunoblot using αAtg3 (1:500) (Novus).
# NF-κB = NF-κB luciferase reporter assay; format: cell-based; details: NIH3T3 cells, 48 hr post-transfection
# Excerpt: To determine the effects of the interactions of vFLIP with FADD, IKKαβγ, and 14-3-3σ on anti-autophagy activity, NIH3T3 cells stably expressing various vFLIP mutants were constructed: m14-3-3σ, which lacks 14-3-3σ-binding; mTRAF2, which lacks TRAF2-binding (Guasparri et al. (2006) EMBO Rep. 7:114-119); 67AAA and 58AAA, which have reduced NF-κB activation (Matta and Chaudhary (2004) Proc. Natl. Acad. Sci. USA 101:9399-9404); and mFADD, which lacks FADD-binding (Yang et al. (2005) Mol. Cell. 20:939-949). These cells were treated with either cyclohexamide (CHX) alone or CHX and TNF-α for 12 hr or with 2 μM rapamycin for 3 hr. Propidium iodide (PI) staining and flow cytometry analysis were performed to determine apoptosis levels. Alternatively, NIH3T3 cells containing vector, KSHV vFLIP, or its mutants were transfected with an NF-κB-luciferase reporter construct and a control renilla luciferase plasmid, pRL-SV40 (Promega). At 48 hr post-transfection, luciferase activity was measured with a luminometer using a dual luciferase assay kit (Promega) and normalized with renilla luciferase activity to determine transfection efficiency. GFP-LC3 puncta were detected using an inverted fluorescence microscope and the autophagy levels quantified as means (±SD) of the results from three independent experiments.
# T2 sequence (Q9NT62 whole entry): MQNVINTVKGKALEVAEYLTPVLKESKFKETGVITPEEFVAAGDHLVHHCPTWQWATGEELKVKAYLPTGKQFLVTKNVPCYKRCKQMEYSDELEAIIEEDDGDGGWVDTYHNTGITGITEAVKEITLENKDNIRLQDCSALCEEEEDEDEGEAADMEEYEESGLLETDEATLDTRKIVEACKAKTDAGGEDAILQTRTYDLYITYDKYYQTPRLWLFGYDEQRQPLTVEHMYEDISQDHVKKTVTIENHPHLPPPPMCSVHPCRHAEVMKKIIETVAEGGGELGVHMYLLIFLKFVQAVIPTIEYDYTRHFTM
# T1 sequence (Q9NT62 whole entry, the tested form may be a part): as the sequence (Q9NT62 whole entry) above
molecule,measurement,setting,value
"EVVLFLLNVF (also: GST fusion) [DED1α2 helix, α2 region of KSHV vFLIP aa 20-29, tested as mammalian GST fusion]",Atg3 binding (GST pulldown),Atg3 [1],individually sufficient for Atg3 binding
QTFLHWVYCMEN [DED2 α4 helix],Atg3 binding (GST pulldown),Atg3 [1],individually sufficient for Atg3 binding
"RRRQRRKKRGY-G ([dR][dR][dR][dQ][dR][dR][dK][dK][dR]G[dY]G; not fully specified; printed as RRRQRRKKRGY-G) [HIV-1 TAT only, HIV-1 TAT protein transduction domain alone, reference compound]",cell death (in words),TREX-BCBL-Vector cells,no increase in autophagy nor cell death
same,autophagy induction (GFP-LC3 puncta),[2],no increase in autophagy
RRRQRRKKRGY-G-FVNLAAAVVE [K-α2m],cell death (in words),TREX-BCBL-Vector cells,no increase in autophagy nor cell death
same,autophagy induction (GFP-LC3 puncta),[2],no increase in autophagy
RRRQRRKKRGY-G-NEMCAAAHAATQ [K-α4m],cell death (in words),TREX-BCBL-Vector cells,no increase in autophagy nor cell death
same,autophagy induction (GFP-LC3 puncta),[2],no increase in autophagy
same,anticancer activity in ALL cell lines,ALL cells,significant anticancer activities
"KSHV vFLIP DED1 (other, also called DED1 of KSHV vFLIP) MATYEVLCEVARKLGTDDREVVLFLLNVFIPQPTLAQLIGALRALKEEGRLTFPLLAECLFRAGRRDLLRDLLHLDPRFLERHLAGTMSY",binding result,[3],binds
"HVS vFLIP (other, also called Flag-HVS vFLIP) MDLKTTVLHITDSFTEEEMYCLLFLINGCIPRNCNAVKISDLIIETLSKSTQWDICLTQCLYVLRKIELLLNLFQVTKEDVKQSFFTQLQLETHVLTLVNVNNNLTAKDEKRLCFILDQFFPRNVVASSVILCVFSNMLCEMPVLECLCQLKKCLKQIGRSDLAKTV",binding result,[4],binds
same,Atg3 region bound (GST pulldown),[5],Atg3 binding patterns similar to KSHV vFLIP
same,suppression of starvation- and rapamycin-induced autophagy,NIH3T3 cells,strongly suppressed starvation- and rapamycin-induced autophagy
same,interaction with Atg3 (co-immunoprecipitation),Atg3 [6],interacted with Atg3 as efficiently as KSHV-vFLIP
"KSHV vFLIP DED2 (other, also called DED2 of KSHV vFLIP) FSPYQLTVLHVDGELCARDIRSLIFLSKDTIGSRSTPQTFLHWVYCMENLDLLGPTDVDALMSMLRSLSRVDLQRQVQTLMGLHLSGPSHSQHYRHTP",binding result,[3],binds
"MCV 159L (MCV vFLIP) (other, also called MCV-MC159; MCV MC159) MSDSKEVPSLPFLRHLLEELDSHEDSLLLFLCHDAAPGCTTVTQALCSLSQQRKLTLAALVEMLYVLQRMDLLKSRFGLSKEGAEQLLGTSFLTRYRKLMVCVGEELDSSELRALRLFACNLNPSLSTALSESSRFVELVLALENVGLVSPSSVSVLADMLRTLRRLDLCQQLVEYEQQEQARYRYCYAASPSLPVRTLRRGHGASEHEQLCMPVQESSDSPELLRTPVQESSSDSPEQTT",binding result,[4],binds
same,NF-κB activation,NF-κB,did not carry out NF-κB activation
same,Atg3 region bound (GST pulldown),[5],Atg3 binding patterns similar to KSHV vFLIP
same,suppression of starvation- and rapamycin-induced autophagy,NIH3T3 cells,strongly suppressed starvation- and rapamycin-induced autophagy
same,interaction with Atg3 (co-immunoprecipitation),Atg3 [6],interacted with Atg3 as efficiently as KSHV-vFLIP
